Data as given in US20200317776A1 (published 2020).

What was measured:
[1] = biological target: T1, human TREM2 Fc fusion (entire TREM2 ECD; only one Fc arm fused to TREM2) (human, UniProt Q9NZC2 19-174); assay: BLI, IgG, avid
T1 construct: also called huTREM2-Fc; recombinant hTREM2
T1 sequence: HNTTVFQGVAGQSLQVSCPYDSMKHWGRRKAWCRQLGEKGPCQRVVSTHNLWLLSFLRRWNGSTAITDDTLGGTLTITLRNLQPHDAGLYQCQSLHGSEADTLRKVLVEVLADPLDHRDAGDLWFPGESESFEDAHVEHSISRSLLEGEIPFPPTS
Description: Briefly, IgGs were loaded on-line onto AHQ sensors, Sensors were equilibrated off-line in assay buffer for 30 minutes and then monitored on-line for 60 seconds for baseline establishment. For avid binding measurement, sensors with loaded IgGs were exposed to 100 nM antigen (human or cynomolgus monkey TREM2 Fe fusion using the entire TREM2 ECD; only one Fc arm was fused to TREM2) for 3 minutes, afterwards they were transferred to assay buffer for 3 minutes for off-rate measurement. Monovalent binding measurements were obtained by loading human TREM2 Fc fusion antigens to AHQ sensor and followed by exposure to 100 nM TREM2 antibody Fab. Kinetics data were fit using a 1:1 binding model in the data analysis software provided by ForteBio. Assay was run at room temperature (25° C.).

[2] = biological target: T2, human TREM2/DAP12 fusion protein (human, UniProt O43914 41-113, limits assumed); assay: cell-based or functional assay
[3] = biological target: T1, human TREM2 Fc fusion (entire TREM2 …); assay: BLI, Fab, monovalent
[4] = biological target: T3, cynomolgus monkey TREM2 Fc fusion (entire TREM2 ECD; only one Fc arm fused to TREM2) (cynomolgus monkey, UniProt Q9NZC2 19-174 (human entry)); assay: BLI, Fab, monovalent
T3 construct: also called cyno TREM2-Fc
T3 chain: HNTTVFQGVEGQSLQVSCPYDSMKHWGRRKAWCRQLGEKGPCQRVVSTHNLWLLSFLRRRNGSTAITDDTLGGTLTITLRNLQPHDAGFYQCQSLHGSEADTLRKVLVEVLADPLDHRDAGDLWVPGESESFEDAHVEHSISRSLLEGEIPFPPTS

[5] = biological target: T4, human TREM2 expressed on cells (human, UniProt Q9NZC2 19-230); assay: FACS, hTREM2 BW cells
T4 construct: BW5147.G.1.4 cells stably expressing human TREM2 together with Dap12, or endogenous TREM2 of primary human myeloid cells; also called huT2 BW; hTREM2 expressing cell line
T4 sequence: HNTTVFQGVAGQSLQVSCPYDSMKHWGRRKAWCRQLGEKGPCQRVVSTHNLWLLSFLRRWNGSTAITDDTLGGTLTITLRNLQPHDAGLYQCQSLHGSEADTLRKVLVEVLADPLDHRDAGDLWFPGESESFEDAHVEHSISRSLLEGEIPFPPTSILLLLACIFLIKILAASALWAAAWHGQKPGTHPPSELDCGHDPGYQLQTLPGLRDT
Source text: (§1) To examine cell binding of affinity matured anti-TREM2 antibodies, both primary human monocyte derived dendritic cells and recombinant, human TREM2 expressing cells were utilized. For the latter, BW5147.G.1.4 (ATCC® TIB48™) and HEK293T cells stably expressing human TREM2 together with Dap12 using viral infection were established. For primary human monocyte derived dendritic cells, human monocytes were isolated from whole blood using RosetteSep Human monocyte enrichment cocktail (Stemcell technologies) and Ficoll centrifugation per manufacturer protocols. After lysing red blood cells with ACK lysing buffer, monocytes were resuspended in complete media (RPMI, 10% FBS, Pen/Strep, L-glutamine, HEPES, non-essential amino acid, Sodium pyruvate) with 100 ng/ml human GM-CSF (hu-GMCSF) and, human IL-4 (hu-IL-4) to differentiate dendritic cells for 6 days.
(§2) Cells were harvested by trypsinization (Hek293T) or scraping (BW and dendritic cells), washed in PBS, counted and plated on 96-well U bottom plates at […] cells/well. The plates were spun at 1,400 rpm for 3 minutes and primary TREM2 or control antibodies were added in FACS buffer (PBS+2% FBS) and incubated on ice for one hour. Cells were subsequently centrifuged as before and washed thrice with FACS buffer. Cells were then incubated with anti-human PE conjugated secondary antibody (BD Biosciences) in FACS buffer for 30 minutes on ice. Cells were again washed thrice with FACS buffer and analyzed on a BD FACS Canto or an Intellicyt Flow Cytometer. Binding was measured as mean fluorescence intensity in the APC channel.

[6] = biological target: T4, human TREM2 expressed on cells; assay: FACS, human DCs
Source text: as §1, §2

[7] = biological target: T2, human TREM2/DAP12 fusion protein; assay: cell-based or functional assay; remark: listed apart in the source
[8] = biological target: T4, human TREM2 expressed on cells; assay: cell-based or functional assay

Binder | Kd [1] [nM] | Luciferase activation plate bound 33 nM IgG, FOC [2] [FOC] | Luciferase activation soluble 10 nM IgG, FOC [2] [FOC] | Kd [3] [nM] | Kd [4] [nM] | Kd [5] [nM] | MFI [6] [MFI] | BW Luc assay plate bound 7.3 nM IgG, FOC [7] [FOC] | BW Luc assay soluble 7.3 nM IgG, FOC [7] [FOC] | DC viability (AUC) [8] [AUC] | Mac viability (AUC) [8] [AUC]
AL2p-21 (antibody, V domains shown, Fab and IgG formats under one id) VH: QVQLVQSGAEVKKPGSSVKVSCKASGYAFSSHWMNWVRQAPGQGLEWMGRIYPGDGDTNYAWKFQGRVTITADESTSTAYMELSSLRSEDTAVYYCARLLRNQPGESYAMDYWGQGTLVTVSS VL: GVVMTQTPLSLSVTPGQPASISCRSSSSLVHSNGYTYLHWYLQKPGQSPQLLIYKVSNRKSGVPDRFSGSGSGTDFTLKISRVEAEDVGVYYCSQSTRVPYTFGQGTKLEIK | 0.399 | 13.1 | 1.83 | 4.15 | 3.84 | 1.5 | – | – | – | – | –
AL2p-25 (antibody, V domains shown, Fab and IgG formats under one id) VH: QVQLVQSGAEVKKPGSSVKVSCKASGYAFSSHWMNWVRQAPGQGLEWMGRIYPGGGDTNYAQKFRGRVTITADESTSTAYMELSSLRSEDTAVYYCARLLRNQPGESYAMDYWGQGTLVTVSS VL: GVVMTQTPLSLSVTPGQPASISCRTSQSLVHSNGYTYLHWYLQKPGQSPQLLIYKVSNRVSGVPDRFSGSGSGTDFTLKISRVEAEDVGVYYCSQSTRVPYTFGQGTKLEIK | 0.22 | 22.3 | 2.35 | 2.34 | 1.76 | 1.7 | – | – | – | – | –
AL2p-22 (antibody, V domains shown, Fab and IgG formats under one id) VH: QVQLVQSGAEVKKPGSSVKVSCKASGYAFSSHWMNWVRQAPGQGLEWMGRIYPGDGDTNYAYKFQGRVTITADESTSTAYMELSSLRSEDTAVYYCARLLRNQPGESYAMDYWGQGTLVTVSS VL: GVVMTQTPLSLSVTPGQPASISCRSSRSLVHSNGYTYLHWYLQKPGQSPQLLIYKVSNRRSGVPDRFSGSGSGTDFTLKISRVEAEDVGVYYCSQSTRVPYTFGQGTKLEIK | 0.219 | 24.9 | 1.75 | 1.58 | 1.28 | 1.5 | – | – | – | – | –
AL2p-28 (antibody, V domains shown, Fab and IgG formats under one id) VH: QVQLVQSGAEVKKPGSSVKVSCKASGYAFSSHWMNWVRQAPGQGLEWMGRIYPGVGDTNYAQKFQGRVTITADESTSTAYMELSSLRSEDTAVYYCARLLRNQPGESYAMDYWGQGTLVTVSS VL: GVVMTQTPLSLSVTPGQPASISCRTSQSLVHSNGYTYLHWYLQKPGQSPQLLIYKVSNRVSGVPDRFSGSGSGTDFTLKISRVEAEDVGVYYCSQSTRVPYTFGQGTKLEIK | 0.417 | 9.27 | 2.14 | 7.6 | 7.91 | 2.2 | – | – | – | – | –
AL2p-24 (antibody, V domains shown, Fab and IgG formats under one id) VH: QVQLVQSGAEVKKPGSSVKVSCKASGYAFSSHWMNWVRQAPGQGLEWMGRIYPGGGDTNYAQKFQGRVTITADESTSTAYMELSSLRSEDTAVYYCARLLRNQPGESYAMDYWGQGTLVTVSS VL: GVVMTQTPLSLSVTPGQPASISCRSSRSLVHSNGYTYLHWYLQKPGQSPQLLIYKVSNRFSGVPDRFSGSGSGTDFTLKISRVEAEDVGVYYCSQSTRVPYTFGQGTKLEIK | 0.233 | 24.1 | 2.12 | 2.1 | 1.63 | 1.7 | – | – | – | – | –
AL2p-27 (antibody, V domains shown, Fab and IgG formats under one id) VH: QVQLVQSGAEVKKPGSSVKVSCKASGYAFSSHWMNWVRQAPGQGLEWMGRIYPGQGDTNYAQKFQGRVTITADESTSTAYMELSSLRSEDTAVYYCARLLRNQPGESYAMDYWGQGTLVTVSS VL: GVVMTQTPLSLSVTPGQPASISCRSSRSLVHSNGYTYLHWYLQKPGQSPQLLIYKVSNRVSGVPDRFSGSGSGTDFTLKISRVEAEDVGVYYCSQSTRVPYTFGQGTKLEIK | 0.274 | 24.4 | 2.06 | 1.99 | 1.82 | 1.5 | – | – | – | – | –

Now from value to binder, other results behind:

Kd [1] [nM] | Luciferase activation plate bound 33 nM IgG, FOC [2] [FOC] | Luciferase activation soluble 10 nM IgG, FOC [2] [FOC] | Kd [3] [nM] | Kd [4] [nM] | Kd [5] [nM] | MFI [6] [MFI] | BW Luc assay plate bound 7.3 nM IgG, FOC [7] [FOC] | BW Luc assay soluble 7.3 nM IgG, FOC [7] [FOC] | Binder | DC viability (AUC) [8] [AUC] | Mac viability (AUC) [8] [AUC]
0.377 | 15.8 | 2.31 | 6.5 | 5.66 | 1.2 | – | – | – | AL2p-30 (antibody, V domains shown, Fab and IgG formats under one id) VH: QVQLVQSGAEVKKPGSSVKVSCKASGYAFSSQWMNWVRQAPGQGLEWMGRIYPGDGDTNYAWKFQGRVTITADESTSTAYMELSSLRSEDTAVYYCARLLRNQPGESYAMDYWGQGTLVTVSS VL: GVVMTQTPLSLSVTPGQPASISCRSSSSLVHSNGYTYLHWYLQKPGQSPQLLIYKVSNRKSGVPDRFSGSGSGTDFTLKISRVEAEDVGVYYCSQSTRVPYTFGQGTKLEIK | – | –
0.889 | 3.21 | 1.72 | 10.3 | 0.884 | 4.5 | – | – | – | AL2p-33 (antibody, V domains shown, Fab and IgG formats under one id) VH: EVQLVQSGAEVKKPGSSVKVSCKASGYAFSSSWMNWVRQAPGQGLEWMGRIYPGDGDTNYAQKFQGRVTITADESTSTAYMELSSLRSEDTAVYYCARLLRNQPGESYAMDYWGQGTLVTVSS VL: GVVMAQTPLSLSVTPGQPASISCRTSQSLVHSNGYTYLHWYLQKPGQSPQLLIYKVSNRVSGVPDRFSGSGSGTDFTLKISRVEAEDVGVYYCSQSTRVPYTFGQGTKLEIK | – | –
– | – | – | 0.623 | 0.37 | 4.79 | 499 | 4.47 | 4.98 | AL2p-38 (antibody, V domains shown, Fab and IgG formats under one id) VH: QVQLVQSGAEVKKPGSSVKVSCKASGYAFSSHWMNWVRQAPGQGLEWMGRIYPGGGDTNYAQKFRGRVTITADESTSTAYMELSSLRSEDTAVYYCARLLRNQPGASYAMDYWGQGTLVTVSS VL: GVVMTQTPLSLSVTPGQPASISCRSSRSLVHSNRYTYLHWYLQKPGQSPQLLIYKVSNRRSGVPDRFSGSGSGTDFTLKISRVEAEDVGVYYCSQSTRVPYTFGQGTKLEIK | 786000 | 39000
1.12 | 4.9 | 1.47 | 36 | 34.8 | 2.8 | – | – | – | AL2p-32 (antibody, V domains shown, Fab and IgG formats under one id) VH: QVQLVQSGAEVKKPGSSVKVSCKASGYAFSSEWMNWVRQAPGQGLEWMGRIYPGDGDTNYAQKFQGRVTITADESTSTAYMELSSLRSEDTAVYYCARLLRNQPGESYAMDYWGQGTLVTVSS VL: GVVMTQTPLSLSVTPGQPASISCRSSQSLVHSNGYTYLHWYLQKPGQSPQLLIYKVSNRRSGVPDRFSGSGSGTDFTLKISRVEAEDVGVYYCSQSTRVPYTFGQGTKLEIK | – | –
– | – | – | 0.493 | 0.36 | 5.01 | 1040 | 5.41 | 8.84 | AL2p-43 (antibody, V domains shown, Fab and IgG formats under one id) VH: QVQLVQSGAEVKKPGSSVKVSCKASGYAFSSHWMNWVRQAPGQGLEWMGRIYPGGGDTNYARKFRGRVTITADESTSTAYMELSSLRSEDTAVYYCARLLRNQPGASYAMDYWGQGTLVTVSS VL: GVVMTQTPLSLSVTPGQPASISCRSSRSLVHSNRYTYLHWYLQKPGQSPQLLIYKVSNRRSGVPDRFSGSGSGTDFTLKISRVEAEDVGVYYCSQSTRVPYTFGQGTKLEIK | – | –
